This is an account of results in the DeepSol protein solubility set.

The nature of this series: soluble on expression in E. coli; label from the status in PepcDB or PDB records.
Turning to “MSLLLTNHIGYERLGPKKAIIQTEQPHLSSYTAQLICATSEQTVATFAVEEQGKVANWHQGYFYLIDFSSFTDSGDYFLQVEDSRSSTFTVGEHILLNQTLSDVIHYFKSQRCGGVFDQQDRQVPVLNANQTADVHGGWYDASGDVSKYLSHLSYANYLNPQQTPMVVWNILKGLSLLEGSEDIAAFTRTRLIEEALFGADFLVRMQNEKGFFYMTVFDKWSKDTAQREICAYETQLGHKFDDYQAGFRQGGGVAIAALAAASRLGVHGEYDQQKYRNAAENGYWHLKEHNTQYLNDGEENIIDEYCALLASVELFKATKETRYLEESRLWAQRLVARQMSDEQIQHFWSANQDGSRPYFHAAEAGLPTIALCEYLAIEDDSVQTESVKCIVNRACEFEIKISNKVTNPFGYPRQYVKGVNESKRDAFFVAHNNESGYWWQGENARLGSLATMAYLAQPHIASQEIQQQLSVFAQDALNWIVGLNPYDMCMLDGHGRNNPDYLPQYGFFNAKGGVCNGITGGFEDEEDIAFNPPAQKDDMLQNWRWGEQWIPHGAWYLLAIMSQAQHISQLATSKNIKEGHHHHHH”, the “soluble on expression in E. coli” value is “soluble”. “MSLGQKVRGNLIIIGGAEDKVGKKTILKYVADIVREKKGSLVILTTATQKPQEVGNNYRQVFETLGLMDIDVLNINSRDEADLDENAERIRSSGGIFFTGGDQLRITSILGGTKVYKALHEVYSKGVVIVGTSAGASVMSNTMIVEGKDNEPARKCTMKMAPGLGFLEEAIIDQHFDQRGRIGRLLCGVAENPFMLGIGIDEDTAIRVYPDAHFEVLGSNAVTVIDGSTIKSTNVSELNPDEILAISGVTLHVLPCGYGFDMKKKRSEGHHHHHH”: the “soluble on expression in E. coli” value is reported as “soluble”. Consider “MPTPKAFALLGPTAGGKTALALKIAETLPVEIISLDSALVYRDMDIGTAKPSASERAFVPHHLIDIIPPTESYSAARFVEDCTRLVGEISSRGRFALIVGGTMMYFRALTQGLNDLPEADACLRADLDEQKQMYGLDFLYRTLQKVDPETACRLKPNDSQRIGRALEVYYLTGKPMSTHLGSLTSHTLPFDLHTAALIPENRARLHENIALRFHLMLEQGFIGEVENLRRRYPGLTAYSPAIRCVGYRQAWKYLDGKTDFPAFVEKGIAATRQLAKRQLTWLRKTPLDCVADPFSDCTSCTRLIEAAKRFFGALEHHHHHH”, for which the “soluble on expression in E. coli” value was “soluble”.

With “MGSDKIHHHHHHMPPSFLWISSEVDLKVSSNGDCDHVVFLVDSHFNTCTESNYESFKVSCVAGTNTKDPTEFTKIELGHRPAGSTESPYDNSGFSVEFNGVFENSKQIECVLTRSSINREKRSSISTKKISKTKPKTQLHIFCYRICEIETKIQVISGRSIGSCRCRRNNKIIIPKNADLQILQRESESSHCHYREKNHKKLFHENSLPVMKFSVFNYNTQKW”, the “soluble on expression in E. coli” value is “not soluble”.

Turning to “MGSDKIHHHHHHSDDKDSYPVPSDIENLKATPAPGQITLSWTNPADENLYYVQIEYTIGATGKSYRKQVSQYANELVIDNLLQKYGEINFTVQAFNRGNTAGTIHQITAQAEKASPTFGTPVKIDLDYKKIWTNAPFPTRPIKDLVDGNIATFFHSWWSSLVEMPHYLVVDLGEEVSAIKFRSTNTNRANDSSWKTINLYTSDSYNPAEWFDGVEKIDGNTVDISQAGTHKETTLTGLPDGVSEVYNSEVIPLSKPSRYLWFEVTETTKGTPYFALGELEIYQCSMVVLE”, the “soluble on expression in E. coli” value is on record as “not soluble”. With “MNTVSPAKKKVIIIGAGIAGLKAASTLHQNGIQDCLVLEARDRVGGRLQTVTGYQGRKYDIGASWHHDTLTNPLFLEEAQLSLNDGRTRFVFDDDNFIYIDEERGRVDHDKELLLEIVDNEMSKFAELEFHQHLGVSDCSFFQLVMKYLLQRRQFLTNDQIRYLPQLCRYLELWHGLDWKLLSAKDTYFGHQGRNAFALNYDSVVQRIAQSFPQNWLKLSCEVKSITREPSKNVTVNCEDGTVYNADYVIITVPQSVLNLSVQPEKNLRGRIEFQPPLKPVIQDAFDKIHFGALGKVIFEFEECCWSNESSKIVTLANSTNEFVEIVRNAENLDELDSMLEREDSQKHTSVTCWSQPLFFVNLSKSTGVASFMMLMQAPLTNHIESIREDKERLFSFFQPVLNKIMKCLDSEDVIDGMRPIENIANANKPVLRNIIVSNWTRDPYSRGAYSACFPGDDPVDMVVAMSNGQDSRIRFAGEHTIMDGAGCAYGAWESGRREATRISDLLKLEHHHHHH”, the “soluble on expression in E. coli” value is “soluble”. Turning to “AIAATSELSCEVSEENCERREAFWAEWKDLTLSTRPEEGCSLHEEDTQRHETYHQQGQCQVLVQRSPWLMMRMGILGRGLQEYQLPYQRVLPLPIFTPAKMGATKEEREDTPIQLQELLALETALGGQCVDRQEVAEITKQLPPVVPVSKPGALRRSLSRSMSQEAQRG”, the “soluble on expression in E. coli” value is recorded as “soluble”. For “MPISYCVSAKKASVVVESVVGNFTGHENVNLIVARGNRIDVQLVSPEGLKNVCEIPIYGQVLTIALVKCKRDKRHSLIVVTEKWHMAILAYRDGKVVTRAAGCIADPTGRATDNLFSLTIHRNGLIAIRAFEGSVKMIQWESGTDLRHFNVRFDYPNVSDFKFVDTGEDDVYRVAFIYDDDHGKHLQFSDLNMHDKEFRTYSRQASIAADSSVLIPVPHAIGGVIVLGSNSVLYKPNDNLGEVVPYTCSLLENTTFTCHGIVDASGERFLLSDTDGRLLMLLLNVTESQSGYTVKEMRIDYLGETSIADSINYIDNGVVFVGSRLGDSQLIRLMTEPNGGSYSVILETYSNIGPIRDMVMVESDGQPQLVTCTGADKDGSLRVIRNGIGIDELASVDLAGVVGIFPIRLDSNADNYVIVSLSDETHVLQITGEELEDVKLLEINTDLPTIFASTLFGPNDSGIILQATEKQIRLMSSSGLSKFWEPTNGEIISKVSVNAANGQIVLAARDTVYLLTCIVDEMGALDIQLTAEKKFENEIACLDLSNEGDDPNNKATFLVLAFWSTFAMEVIQLPDLITVCHTDLPTKIIPRSIIATCIEEVHYLLVAFGDGALVYYVFDIKTGTHGEPKKSNVGTRPPSLHRVRNKNRQHLFVCSDRPVIIFSASKKLVFSNVNVKLVDTVCSLSSSAYRDCLVISDGNSMVFGTVDDIQKIHVRSIPMGESVLRIAYQKSTSTYGVCSNRTESKAERVFASKNALVTSQSRPKVASTRADMDESPPNTTSSFMVLDQNTFQVLHSHEFGPWETALSCISGQFTNDSSTYYVVGTGLIYPDETETKIGRIVVFEVDDVERSKLRRVHELVVRGSPLAIRILNGKLVAAINSSIRLFEWTTDKELRLECSSFNHVIALDLKVMNEEVAVADVMRSVSLLSYRMLEGNFEEVAKDWNSQWMVTCEFITAESILGGEAHLNLFTVEVDKTRPITDDGRYVLEPTGYWYLGELPKVMTRSTLVIQPEDSIIQYSQPIMFGTNQGTIGMIVQIDDKWKKFLIAIEKAIADSVKNCMHIEHSSYRTFVFQKRAEPPSGFVDGDLVESILDMDRSVAMDILSKVSDKGWDPSLPRDPVEILKVIEDLARMH”, the “soluble on expression in E. coli” value is reported as “not soluble”. On to “MKSKLICIIMVIAFQAHFTMTVKADSVGEEKLQNNTQAKKTPADLKALPDSCEAKDFYKNFKILDMTKDKLGVTHYTLALSSGGYLTDNDEIKVHVTPDNKITFINGDLQQGQLRITNQIKITEKNAIEKAFEAIGQSEAHVKSYVGNPVKEKEIILNSRTKRLVYNIKLIFAEPEVASWIVQVDVETGAILKKQNMLSEVERADTHKDFQALGKGANRLLQRPLHVMKINDLFYLVDRTHKGLIRTFDLKHNTDTSFGKVVSNKTNMFTDPEFSSAVDAHFYASEVYEYYKNVHQLESLDGKGGEIDSFVHYGLNCNNAFWDGQEILYGDGDKKNFKPFSCAKTIVGHELTHAVIQYSAGLEYEGQSGALNESFADVFGYFIAPNHWLIGEDVCVRGSRDGRIRSIKDPDKYNQAAHMKDYESLPLTEEGDWGGVHYNSGIPNKAAYNTITKLGKEKTEQLYFRALKYYLTKKSQFTDAKKALQQAAKDLYGEDASKKVAEAWEAVGVN”, for which the “soluble on expression in E. coli” value is reported as “not soluble”. “SDKEYVGFAALPNQLHRKSVKKGFDFTLMVAGESGLGKSTLINSLFLTNLYEDRQVPEASARLTQTLAIERRGVEIEEGGVKVKLTLVDTPGFGDSVDCSDCWLPVVKFIEEQFEQYLRDESGLNRKNIQDSRVHCCLYFISPFGRGLRPLDVAFLRAVHEKVNIIPVIGKADALMPQETQALKQKIRDQLKEEEIHIYQFPECDSDEDEDFKRQDAEMKESIPFAVVGSCEVVRDGGNRPVRGRRYSWGTVEVENPHHCDFLNLRRMLVQTHLQDLKEVTHDLLYEGYRARCLQSLARPGARDRASRSKLSRQSATEIPLPMLPLADTEKLIREKDEELRRMQEMLEKMQAQMQQSQAQGEQSDAL”: the “soluble on expression in E. coli” value is “soluble”.
